Molecular target: BLM, endogenous, P54132
Test: PLA (α-Flag + α-BLM)
Conditions: chain shown with the change, U2OS cells, 2 h, read off a plot

- response (PLA dots per cell) (20 μM ETO, parent: est. 100): 24
- response (PLA dots per cell) (DMSO, parent: est. 13): 5
B1: Flag-tagged GNL3 (Flag-GNL3), wild type, Q9BVP2 143VVLEVL149 to 143VAAEAL149 (SIMm) (protein)
chain: MKRPKLKKASKRMTCHKRYKIQKKVREHHRKLRKEAKKRGHKKPRKDPGVPNSAPFKEALLREAELRKQRLEELKQQQKLDRQKELEKKRKLETNPDIKPSNVEPMEKEFGLCKTENKAKSGKQNSKKLYCQELKKVIEASDVAAEALDARDPLGCRCPQVEEAIVQSGQKKLVLILNKSDLVPKENLESWLNYLKKELPTVVFRASTKPKDKGKITKRVKAKKNAAPFRSEVCFGKEGLWKLLGGFQETCSKAIRVGVIGFPNVGKSSIINSLKQEQMCNVGVSMGLTRSMQVVPLDKQITIIDSPSFIVSPLNSSSALALRSPASIEVVKPMEAASAILSQADARQVVLKYTVPGYRNSLEFFTVLAQRRGMHQKGGIPNVEGAAKLLWSEWTGASLAYYCHPPTSWTPPPYFNESIVVDMKSGFNLEELEKNNAQSIRAIKGPHLANSILFQSSGLTNGIIEEKDIHEELPKRKERKQEEREDDKDSDQETVDEEVDENSSGMFAAEETGEALSEETTAGEQSTRSFILDKIIEEDDAYDFSTDYV

From PMC13598120
